Laboratory results as given in the DeepSol protein solubility set.

Experiment: soluble on expression in E. coli; label from the status in PepcDB or PDB records

Soluble on expression in E. coli, soluble:
ISEFMSDITVTNWAGNITYTAKELLRPHSLDALRALVADSARVRVLGSGHSFNEIAEPGDGGVLLSLAGLPSVVDVDTAARTVRVGGGVRYAELARVVHARGLALPNMASLPHISVAGSVATGTHGSGVGNGSLASVVREVELVTADGSTVVIARGDERFGGAVTSLGALGVVTSLTLDLEPAYEMEQHVFTELPLAGLDPATFETVMAAAYSVSLFTDWRAPGFRQVWLKRRTDRPLDGFPYAAPAAEKMHPVPGMPAVNCTEQFGVPGPWHERLPHFRAEFTPSSGAELQSEYLMPREHALAALHAMDAIRETLAPVLQTCEIRTVAADAQWLSPAYGRDTVAAHFTWVEDTAAVLPVVRRLEEALVPFAARPHWGKVFTVPAGELRALYPRLADFGALAGALDPAGKFTNAFVRGVLAG
VAVTCRVLKLARQPYYRWRAHPVTDAEIVEAYRANALFDAHKDDPEFGYRYLVEEARDAGEPMAERTAWRICSQQGLWSVFGKKRGKNGKPGPPVHDDLVERDFTASEPNALWLSDITEHRTGEGKLYLCAIKDVFSNRIVGYSIDSRMKSRLATAALSSAVARRGDVDGCILHSDRGSQFRSRKFVHALHHHGMVGSMGRVGAAGDNAAMESFFSLLQKNVLDRRRWDTREQLRIAIVIWIERTYHRRRRQLTLGRLTPIEFEAIMTTPASQAA
SLLLAKHPVISVNGNTAVLVPEETRKLAELVNAKVEINVFHHSPERVEKIKRYLEKHGIEVLAAGDAVLEGLESARRIVDSRGILIADVVLVPLEDGDRCEILKRHGKKVIAIDLNPLSRTARMADITIVDNIIRAFPKMVEMAEEMRKWERERLKEVVENYDNSKVLAEAVEGIIQYLQKVKGELLSP
MKLAVAGKGGVGKTTVAAGLIKIMASDYDKIYAVDGDPDSCLGQTLGLSIEEAYAITPLIEMKDEIREKTGDGGLLILNPKVDGDLDKYGRYIDDKIFLIRMGEIKKGGSQCYCRENSFLGSVVSALFLDKKEAVVMDMGAGIEHLTRGTAKAVDMMIAVIEPNLNSIKTGLNIEKLAGDLGIKKVRYVINKVRNIKEEKLIKKHLPEDKILGIIPYNELFIELSLKGEEIWQSTNPAFVNLHDIYQKLRLEVG
MRAPGVRAADGAGRVVLYLHGGAFVMCGPNSHSRIVNALSGFAESPVLIVDYRLIPKHSLGMALDDCHDAYQWLRARGYRPEQIVLAGDSAGGYLALALAQRLQCDDEKPAAIVAISPLLQLAKGPKQDHPNIGTDAMFPARAFDALAAWVRAAAAKNMVDGRPEDLYEPLDHIESSLPPTLIHVSGSEVLLHDAQLGAGKLAAAGVCAEVRVWPGQAHLFQLATPLVPEATRSLRQIGQFIRDATADSSLSPVHRSRYVAGSPRAASRGAFGQSPI
PNARSQPSKTLFVKGLSEDTTEETLKESFDGSVRARIVTDRETGSSKGFGFVDFNSEEDAKAAKEAMEDGEIDGNKVTLDWAKPKGEGG
MPGFDYKFLEKPKRRLLCPLCGKPMREPVQVSTCGHRFCDTCLQEFLSEGVFKCPEDQLPLDYAKIYPDPELEVQVLGLPIRCIHSEEGCRWSGPLRHLQGHLNTCSFNVIPCPNRCPMKLSRRDLPAHLQHDCPKRRLKCEFCGCDFSGEAYESHEGMCPQESVYCENKCGARMMRRLLAQHATSECPKRTQPCTYCTKEFVFDTIQSHQYQCPRLPVACPNQCGVGTVAREDLPGHLKDSCNTALVLCPFKDSGCKHRCPKLAMARHVEESVKPHLAMMCALVSRQRQELQELRRELEELSVGSDGVLIWKIGSYGRRLQEAKAKPNLECFSPAFYTHKYGYKLQVSAFLNGNGSGEGTHLSLYIRVLPGAFDNLLEWPFARRVTFSLLDQSDPGLAKPQHVTETFHPDPNWKNFQKPGTWRGSLDESSLGFGYPKFISHQDIRKRNYVRDDAVFIRAAVELPRKILS
MSLAPFTTNPRRFDPYKNFKFRVKWDGRYVAGISKVGALKRSTEVIEHREGGDPSTGRKSPGRTKYDAISMERGVTHDLDFEQWANKVWNFGAGLGSEVSLADFRKDLIIDVFNEAGQKVMSYQVFRCWVSEYQALPDLDANANAIAIQSMKLENEGWLRDVAVAEPAEPSFTIPAEGHHHHHH
GSAASSALKGLIQQFTTITGASESVGKHMLEACNNNLEMAVTMFLDGGG
PVPATPILQLEECCTHNNSATLSWKQPPLSTVPADGYILELDDGNGGQFREVYVGKETMCTVDGLHFNSTYNARVKAFNKTGVSPYSKTLVLQTSEG
MNETPTRVYAEIDLDAVRANVRALRARAPRSALMAVVKSNAYGHGAVPCARAAQEAGAAWLGTATPEEALELRAAGIQGRIMCWLWTPGGPWREAIETDIDVSVSGMWALDEVRAAARAAGRTARIQLKADTGLGRNGCQPADWAELVGAAVAAQAEGTVQVTGVWSHFACADEPGHPSIRLQLDAFRDMLAYAEKEGVDPEVRHIANSPATLTLPETHFDLVRTGLAVYGVSPSPELGTPAQLGLRPAMTLRASLALVKTVPAGHGVSYGHHYVTESETHLALVPAGYADGIPRNASGRGPVLVAGKIRRAAGRIAMDQFVVDLGEDLAEAGDEAVILGDAERGEPTAEDWAQAAHTIAYEIVTRIGGRVPRVYLGGLEHHHHHH

Soluble on expression in E. coli, not soluble:
MKIALIGASGYVGSALLKEALSRGHHVTALVSRPERIAAQANLAAAKVDVQDSAQLAEQLKGFDAVLSAFSGHAQAEQFDYFVKGIRSIIAAAKAAQAPRLLVVGGAGSLEVAPGVQLVDTPEFPEQWKASALGAREALNLLRAETELNWTLLSPSAMLQPGQRTGQFRLGKDQLLVDAEGNSHISVEDYAVAMIDELEKGLEHHHHHH
MGSDKIHHHHHHMMFGYIKPLKCELKVKEYEEFRGYYCGVCKALKKYSIIPRFLLTYEAASLGLLLSSLNNSDLKRKKELCIFTLKKVDFYSSSEIDEVARVFTALLREKLKDNYIDRKNPVYLFASAFLKKDPEISSLFENFYEMEKKEQDFKILAEEQGKIVGTILSKMVKEETQRKILYYLGLSLGKWLYIVDALDDFEKDKRKNVFNPLVKKYNGDLEKARSELRPHLKKCIDEMWKAYDLLDIKRNKTILDNIVYLGIPFITENVLVGKTCNLNHSTIL
MRYSLKQLAVFDAVADCGSVSQAADKLALTQSATSMSLAQLEKMLGRPLFERQGKQMALTHWGMWLRPKAKRLLQDAQQIEMGFYDQHLLSGEIRLGASQTPAEHLVPDLISIIDSDFPEIRISLGVKSTKGVIEGVLDYKYDLGIIEGRCDDNRIYQEVWCRDHLTIVASAHHPFAKRESVSLAQLEQAKWVLREQGAGTRNIFDSVIHPLIPDLDVWREYEHVPVLRTLVANGPYLTCLPYLDVERFIESGLLVALNVPELNMERTLSFIWRADMEENPLAECIKREGLRMMKGKPSIL
MGSDKIHHHHHHMTEQNRDLVLVTGASGFVGSSVARIAQQKGFKVRVLVRATSPRQNVESLDAEIVVGDMRDEASMRNALRGVRYLLHVAADYRLWAPDPSEIERSNLEGTEATMRAALKEGVERIVYTSSVATLKVTSSGQSADETSPLKADQAIGVYKRSKVLAERAVERMIAEDNLPAVIVNPSTPIGPRDVKPTPTGRIIVEAALGKIPAFVDTGLNLVHVDDVAAGHFLALERGKIGERYILGGENLPLQQMLADIAALTGRKAPTLSLPRWPLYPLAMGAEAIAKITKREPFVTVDGLKMSKNKMYFTSAKAERELGYRARPYREGLGDALEWFRQAGYLKA
MGSDKIHHHHHHMMKMERKNVWHHRKKEEIEAFSKEYMEFMSKAKTERMTVKEIKRILDESGFVPLEDFAGDPMNMTVYAVNRGKAIAAFRVVDDLKRGLNLVVAHIDSPRLDFKPNPLIEDEQIALFKTHYYGGIKKYHWLSIPLEIHGVLFKNDGTEIEIHIGDKPEDPVFTIPDLLPHLDKEDAKISEKFKGENLMLIAGTIPLSGEEKEAVKTNVLKILNEMYGITEEDFVSGEIEVVPAFSPREVGMDRSLIGAYGQDDRICAYTALRALLSANPEKSIGVIFFDKEEIGSDGNTGAKARFYLKALRQILKMQGAKDSEFVLDEVLENTSVISGDVCAAVNPPYKDVHDLHNAPKLGYGVALVKYTGARGKYSTNDAHAEFVARVRKVLNEQGVIWQVATLGKVDQGGGGTIAKFFAERGSDVIDMGPALLGMHSPFEISSKADLFETYVAYRSLMEKL
MIAEFESRILALIDGMVDHASDDELFASGYLRGHLTLAIAELESGDDHSAQAVHTTVSQSLEKAIGAGELSPRDQALVTDMWENLFQQASQL
MGSDKIHHHHHHMSSHQPAPPARPTNKVFIIGLPRTGTTSVSVALLEMGLRVAHQAFTKQAVILADAISDAPCFSDYRQLHSLYPDAKFIYLDRPLDAWVPSMQMLLSRMLVHLDKERGRFHPLLKRSFGHTFGIYRVADPMDAEHLKTCYQVHKQQVFDYFHQDQGLAQQFLSLQLDDPQSLPRLANFIGLDAQVDSPQLAFPHLNRGRNVASWDEYKHELKISSNLAGPENRKYFNYKI
GPGSMFYPNSPQTSPQLTQIPYGQQYAMMQRQIQQPYHPFATTEPQARLYPYHYQGPIQQEQGGFITQQSTAASPQYVQMRVTPVDQSIMSGYPNQTANGSSSSSFNYNIHPQQQQQQQQQQQLRHHAMPVGSVPLQDDRYRKQLIVNYLAPDVTSTDLHELFSRFGELDGARIIYDKQTNMSKGYGFVYFCHAEDAKEAVERMSGYEFHGKWLKVGYSTNPLNIVPSNSSPYVHAGSRGAAG
MPAQIEDYALLGNCRSAALVSRDGALDWLCLPRFDAPAVFAALLGNEENGRWRLAPCDPVTHSSRQYLGDTLVLETTWVTASGRARVLDFMPLGEVNSVVRIVEGLSGETHFEMDLVMRFDYGLEHHHHHH
MDVSYYDGPKDEVAEAMLKSAVTAMRLGQYEDGKGRLEEIMEFGTSNFQLLGTIYMYYGRVCRHLNHDAKALEFFEHELNMFKLIFNYPEACDSTRRIVEQALKMGKFPKARRFAEDLIDYTSNKKNGEKYIGQARILFASVCLEGCERDVESNQDEKKKLLSICAEQIAAVKLFNENNTEGAVSETKIMLLEAKCLSLDEKYEESRRKYQECIDFAIKTDQFEAVHIAYYDKALYAETDLLFFIIRDLRSALFYATKFGKERDVVKYKSKLSEEMLRNGEFHEAYLYGLEALVSIRKLGLNEYIGDVLLTIAKCLIALGKRRQAAYFIILGSVLTINQNSFKLFYEQIDVAMNQERSETATDQDVCLAIDSSPDPTSSNDMINKFVVELEHATNVETWEMIVNGIIDDQKKPVAIEKKENEEPVDMMDLIFSMSSRMDDQRTELPAARFIPPRPVSSASKKTTKSHRILPGLRANWTKVQSMKFDGHTMNRILKRSKKSKSSLDSTNSMQGDDTRSDDVTMTSK
MAAASVKGFFQRTGISIKEYFKRMGNDYATVARETVQGCKDRPVKAGVVFSGLGFLTYAYQTNPTELEMYDYLCERRQKLVLVPNSEHNPATTKELTARDFLISQNRLHYYNLWFFSLLVASDYNDKLRIYSSQDSNLKDWPWTELWRNIVDIGALGRWHRMETAFVDYDVNTDEIDLLPDGDKN
MNEIMLETKNLCKTFRQQSVVQNISLSVPKYAIYGLLGPNGAGKSTTLKMITGMLIPTSGEIYFDGHKWTRHDLHSIGALIDSPPLYENLTARENLQVRTTVLGLPKSRIDEVLHVVELENTEKKKAKDFSMGMKQRLGIAIALLNHPKFLILDEPMNGLDPFGIQELRKLILSFPGKGITVILSSHILSEVSQIADHVGIISGGVLGYQGKLNKNDDLEDLFVQVAGKYRREA
